Experimental data as given in article PMC3726526, “Structural and Functional Characterization of the Recombinant Death Domain from Death-Associated Protein Kinase” (PLoS ONE, 2013).

Biological target: T1, GST-ERK2 (extracellular-regulated kinase-2) (human, UniProt P28482 1-360)
T1 construct: full length human ERK2 in pGEX-6-P3, N-terminal GST with a PreScission protease site; The methods and results of the ITC say 'ERK2'; the discussion says that the ITC and CD were done with GST-ERK2; source: E. coli BL21 codon plus; in cell lysate, held on glutathione beads (pull-down); large scale production as previously described [25]; (ITC); not shown: GST, N-terminal, kept
T1 sequence (P28482 whole entry): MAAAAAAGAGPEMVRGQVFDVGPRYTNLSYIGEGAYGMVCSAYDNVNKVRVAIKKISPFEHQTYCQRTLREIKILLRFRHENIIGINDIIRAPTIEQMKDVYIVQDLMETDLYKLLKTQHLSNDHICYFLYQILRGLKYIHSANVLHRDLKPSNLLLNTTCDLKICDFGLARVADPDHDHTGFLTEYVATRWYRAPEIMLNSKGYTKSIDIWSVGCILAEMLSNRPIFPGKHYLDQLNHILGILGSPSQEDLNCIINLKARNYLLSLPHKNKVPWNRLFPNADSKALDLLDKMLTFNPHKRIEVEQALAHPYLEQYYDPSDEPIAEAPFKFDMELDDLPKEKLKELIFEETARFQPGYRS
Experiment: ITC; VP-ITC, 25 C; 19 injections of 15 ul of 159 uM GB1-DAPk-DD(L) or 250 uM GB1-DAPk-DD(S) into 1.45 ml of 8.85-18.6 uM ERK2; 50 mM HEPES pH 7.5, 50 mM NaCl, 1 mM TCEP, 1 mM EDTA
Details: both partners purified

| Binder | Kd | dH | stoichiometry N |
| --- | --- | --- | --- |
| GB1-DAPk-DD(L) (domain or fragment, human, UniProt P53355 1293-1408, looked up, death domain region of human death-associated protein kinase (DAPk, DAPK1) with a nine-residue C-terminal extension from the Ser-rich tail, residues 1293-1408; Made by mutagenesis of a GEV vector holding residues 1293-1431; intact GB1 fusion in all experiments; Predicted monomer mass 20.6 kDa; also called long GB1-DAPk-DD construct; full-length DAPk-DD (long variant); source: E. coli BL21 codon …) QASLGMDIHASDLNLLTRRKLSRLLDPPDPLGKDWCLLAMNLGLPDLVAKYNTSNGAPKDFLPSPLHALLREWTTYPESTVGTLMSKLRELGRRDAADFLLKASSVFKINLDGNGQ | 920 nM | -9.18 kcal/mol | 1.03 ± 0.01 |
| GB1-DAPk-DD(S) (domain or fragment, human, UniProt P53355 1293-1399, looked up, death domain region of human death-associated protein kinase (DAPk, DAPK1), residues 1293-1399; Cloned between BamHI and XhoI of plasmid GEV2; all experiments were done with the intact GB1 fusion (thrombin not used); Predicted monomer mass 19.6 kDa; By the primers the XhoI site should add Leu-Glu before the His6 tag (surmised); also called short GB1-DAPk-DD construct; full-length DAPk-DD (short …)) QASLGMDIHASDLNLLTRRKLSRLLDPPDPLGKDWCLLAMNLGLPDLVAKYNTSNGAPKDFLPSPLHALLREWTTYPESTVGTLMSKLRELGRRDAADFLLKASSVF | 1770 nM | -12.7 kcal/mol | 0.97 ± 0.01 |
